This experiment has as its target T1, human TSH receptor stably expressed on Chinese Hamster Ovary (CHO) cells (CHO-hTSHR clone JP09 and clone JP26) (human, UniProt P16473 21-764).
T1 construct: whole, on cells; also called hTSH receptor; CHO-JPO9
In words: told in words; bioactivity assay on CHO-JPO9 cells expressing the TSH receptor.

B1: mutant TSH heterodimer of wild type human common α-subunit and mutant human TSH-β subunit βE6N (ligand)
alpha: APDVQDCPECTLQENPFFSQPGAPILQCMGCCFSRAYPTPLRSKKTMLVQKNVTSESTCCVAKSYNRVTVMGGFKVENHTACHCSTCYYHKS
beta: FCIPTNYTMHIERRECAYCLTINTTICAGYCMTRDINGKLFLPKYALSQDVCTYRDFIYRTVEIPGCPLHVAPYFSYPVALSCKCGKCNTDYSDCIHEAIKTNYCTKPQKSYLVGFSV
modifications: Both subunits are N-glycosylated (secreted from CHO-K1 cells). They form a noncovalent heterodimer. The letters carry neither feature.
notes: Transiently expressed in CHO-K1 cells
Consider B1, for which the binding result is listed as “binds”.

These data come from patent US20040265972A1 (published 2004).
